Experimental data from patent US20260125469A1 (Hoffmann-La Roche, published 2026).
Read-outs that look alike come from different tables or passages of the source. Blank lines part the entries; values can stand above or below the binder they belong to.

Columns and labels:
[1] = molecular target: human CD3 on cells (CD3ε) (human, UniProt P07766 23-207); assay: cell-based or functional assay
[2] = molecular target: T1, Human CD3ε stalk-Fc(knob)-Avi/CD3δ stalk-Fc(hole) (human); assay: SPR, TCB captured by anti-PG antibody, antigen as analyte, 25°C
T1 construct: Heterodimer of CD3 delta and CD3 epsilon ectodomains fused to human Fc with knob-into-hole; also called human CD3ε/δ; CD3 antigen

[3] = molecular target: T1, Human CD3ε stalk-Fc(knob)-Avi/CD3δ …; assay: as above; remark: listed apart in the source
Text: (§1) For affinity measurements, TCB molecules were captured on a C1 sensorchip (GE Healthcare) surface with immobilized anti-Fc(P329G) IgG (an antibody that specifically binds human IgG₁ Fc(P329G); “anti-PG antibody”—see WO 2017/072210, incorporated herein by reference). The experimental setup is schematically depicted in FIG. 3. Capture IgG was coupled to the sensorchip surface by direct immobilization of around 400 resonance units (RU) using the standard amine coupling kit (GE Healthcare Life Sciences).
(§2) Kinetic constants were derived using the Biacore T200 Evaluation Software (GE Healthcare Life Sciences), to fit rate equations for 1:1 Langmuir binding by numerical integration. The half-life (t_{1/2}) of the interaction was calculated using the formula t_{1/2}=ln2/koff.
(§3) To analyze the interaction to CD3, TCB molecules were captured for 240 s at 25 nM with a flow rate of 10 μl/min. Human and cynomolgus CD3F stalk-Fc(knob)-Avi/CD36-stalk-Fc(hole) were passed at a concentration of 0.14-100 nM with a flow rate of […] through the flow cells for 240 s. The dissociation was monitored for 800 s.

[4] = molecular target: T2, Cynomolgus CD3ε stalk-Fc(knob)-Avi/CD3δ stalk-Fc(hole) (cynomolgus); assay: as above
T2 construct: also called cynomolgus CD3ε/δ
Text: as §1, §2, §3

[5] = molecular target: T1, Human CD3ε stalk-Fc(knob)-Avi/CD3δ …; assay: SPR on immobilized human CD3ε/δ after stress, relative to sample kept at -80°C pH 6
Experimental: In order to assess the effect of the deamidation site removal and its effect on the stability of the antibodies, the optimized anti-CD3 antibodies (in TCB format) were incubated for 14 days at 37° C., pH 7.4 and at 40° C., pH 6 and further analyzed by SPR for their binding capability to human CD3ε/δ. Samples stored at −80° C. pH 6 were used as reference. The reference samples and the samples stressed at 40° C. were in 20 mM His, 140 mM NaCl, pH 6.0, and the samples stressed at 37° C. in PBS, pH 7.4, all at a concentration of 1.0 mg/ml. After the stress period (14 days) samples in PBS were dialyzed back to 20 mM His, 140 mM NaCl, pH 6.0 for further analysis.
(§4) All SPR experiments were performed on a Biacore T200 instrument (GE Healthcare) at 25° C. with HBS-P+ (10 mM HEPES, 150 mM NaCl pH 7.4, 0.05% Surfactant P20) as running and dilution buffer. Biotinylated human CD3ε/δ (see Example 3, SEQ ID NOs 41 and 42) as well as biotinylated anti-huIgG (Capture Select, Thermo Scientific, #7103262100) were immobilized on a Series S Sensor Chip SA (GE Healthcare, #29104992), resulting in surface densities of at least 1000 resonance units (RU). Anti-CD3 antibodies with a concentration of 2 μg/ml were injected for 30 s at a flow rate of 5 μl/min, and dissociation was monitored for 120 s. The surface was regenerated by injecting 10 mM glycine pH 1.5 for 60 s. Bulk refractive index differences were corrected by subtracting blank injections and by subtracting the response obtained from a blank control flow cell. For evaluation, the binding response 5 seconds after injection end was taken. To normalize the binding signal, the CD3 binding was divided by the anti-huIgG response (the signal (RU) obtained upon capture of the CD3 antibody on the immobilized anti-huIgG antibody). The relative binding activity was calculated by referencing each temperature stressed sample to the corresponding, non-stressed sample.
The experiment was performed as described in Example 4, using the TCB molecules prepared in Example 7.

[6] = molecular target: T1, Human CD3ε stalk-Fc(knob)-Avi/CD3δ …; assay: SPR, monovalent IgG captured by anti-PG antibody, antigen as analyte, 25°C
[7] = molecular target: T1, Human CD3ε stalk-Fc(knob)-Avi/CD3δ …; assay: as above; remark: listed apart in the source
Experimental: (§5) SPR experiments were performed as described in Example 3, with the monovalent IgG molecules prepared in Example 19.
(§6) To analyze the interaction to CD3, IgG molecules were captured for 240 s at 50 nM with a flow rate of 5 μl/min. Human and cynomolgus CD3F stalk-Fc(knob)-Avi/CD36-stalk-Fc(hole) were passed at a concentration of 0.061-250 nM with a flow rate of […] through the flow cells for 300 s. The dissociation was monitored for 800 s.

[8] = molecular target: T2, Cynomolgus CD3ε stalk-Fc(knob)-Avi/CD3δ …; assay: as above
Experimental: as §5, §6

[9] = molecular target: T1, Human CD3ε stalk-Fc(knob)-Avi/CD3δ …; assay: SPR on immobilized human CD3ε/δ after stress, relative to sample kept at -80°C pH 6; remark: listed apart in the source
Experimental: as §4
The experiment was performed as described in Example 4, using the monovalent IgG molecules prepared in Example 19.

Chain of human CD3 on cells (CD3ε) (P07766 23-207 limits assumed): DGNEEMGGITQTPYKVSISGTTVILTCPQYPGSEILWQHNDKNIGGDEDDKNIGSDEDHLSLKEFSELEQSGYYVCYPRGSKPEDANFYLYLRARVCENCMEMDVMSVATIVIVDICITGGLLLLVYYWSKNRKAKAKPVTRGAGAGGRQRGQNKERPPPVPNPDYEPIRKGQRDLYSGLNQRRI

EC50 24 h (pM), T-cell mediated lysis of CEACAM5-expressing LS180 tumor cells [1]: 58 pM | EC50 48 h (pM), T-cell mediated lysis of CEACAM5-expressing LS180 tumor cells [1]: 36.1 pM | fold higher binding half-life than CD3orig [2]: > 3 fold | Kd [3]: 0.562 nM | koff [3]: 0.000886 s⁻¹ | kon [3]: 1.59e+06 M⁻¹ s⁻¹ | t1/2 [3]: 13 min | Kd [4]: 0.324 nM | koff [4]: 0.000675 s⁻¹ | kon [4]: 2.08e+06 M⁻¹ s⁻¹ | t1/2 [4]: 17.1 min | binding activity [%] after 2 weeks at pH 6.0/40°C [5]: 101% | binding activity [%] after 2 weeks at pH 7.4/37°C [5]: 99%
B1: CEACAM5-TCB, CEACAM5 CD3 variant P033.078 (bispecific antibody, human IgG1, kappa, L234A L235A)
heavy 1: not shown
heavy 2: QVQLVQSGAEVKKPGSSVKVSCKASGFNIKDTYMHWVRQAPGQGLEWMGRIDPANGNSKYVPKFQGRVTITADTSTSTAYMELSSLRSEDTAVYYCAPFGYYVSDYAMAYWGQGTLVTVSSASTKGPSVFPLAPSSKSTSGGTAALGCLVEDYFPEPVTVSWNSGALTSGVHTFPAVLQSSGLYSLSSVVTVPSSSLGTQTYICNVNHKPSNTKVDEKVEPKSCDKTHTCPPCPAPEAAGGPSVFLFPPKPKDTLMISRTPEVTCVVVDVSHEDPEVKFNWYVDGVEVHNAKTKPREEQYNSTYRVVSVLTVLHQDWLNGKEYKCKVSNKALGAPIEKTISKAKGQPREPQVCTLPPSRDELTKNQVSLSCAVKGFYPSDIAVEWESNGQPENNYKTTPPVLDSDGSFFLVSKLTVDKSRWQQGNVFSCSVMHEALHNHYTQKSLSLSP
light 1: EIVLTQSPATLSLSPGERATLSCRAGESVDIFGVGFLHWYQQKPGQAPRLLIYRASNRATGIPARFSGSGSGTDFTLTISSLEPEDFAVYYCQQTNEDPYTFGQGTKLEIKRTVAAPSVFIFPPSDRKLKSGTASVVCLLNNFYPREAKVQWKVDNALQSGNSQESVTEQDSKDSTYSLSSTLTLSKADYEKHKVYACEVTHQGLSSPVTKSFNRGEC
light 2: EVQLLESGGGLVQPGGSLRLSCAASGFTFESYAMNWVRQAPGKGLEWVSRIRSKYNEYATYYADSVKGRFTISRDDSKNTLYLQMNSLRAEDTAVYYCVRASNFPSSFVSYFGYWGQGTLVTVSSASVAAPSVFIFPPSDEQLKSGTASVVCLLNNFYPREAKVQWKVDNALQSGNSQESVTEQDSKDSTYSLSSTLTLSKADYEKHKVYACEVTHQGLSSPVTKSFNRGEC
notes: 2+1 IgG CrossFab, inverted; human IgG1 Fc, knob-into-hole, PGLALA; also called P033.078 in CEACAM5-TCB format

fold higher binding half-life than CD3orig [6]: > 2 fold | Kd [7]: 0.771 nM | koff [7]: 0.00133 s⁻¹ | kon [7]: 1.73e+06 M⁻¹ s⁻¹ | t1/2 [7]: 8.69 min | Kd [8]: 0.403 nM | koff [8]: 0.00104 s⁻¹ | kon [8]: 2.6e+06 M⁻¹ s⁻¹ | t1/2 [8]: 11.1 min | binding activity [%] after 2 weeks at pH 6.0/40°C [9]: 98% | binding activity [%] after 2 weeks at pH 7.4/37°C [9]: 95%
B2: anti-CD3 antibody clone P033.078 in monovalent IgG format (antibody)
heavy: not shown
chain: DKTHTCPPCPAPEAAGGPSVFLFPPKPKDTLMISRTPEVTCVVVDVSHEDPEVKFNWYVDGVEVHNAKTKPREEQYNSTYRVVSVLTVLHQDWLNGKEYKCKVSNKALGAPIEKTISKAKGQPREPQVCTLPPSRDELTKNQVSLSCAVKGFYPSDIAVEWESNGQPENNYKTTPPVLDSDGSFFLVSKLTVDKSRWQQGNVFSCSVMHEALHNHYTQKSLSLSP
light: B1 light 2
notes: also called monovalent IgG P033.078
